This assay addresses SARS-CoV-2 Omicron BA.5 sublineage receptor binding domain (RBD) (SARS-CoV-2) (UniProt P0DTC2). Description: SPR.

Values joined by “and” are separate entries in the source; they are usually repeats but may differ in a detail not shown here. Equal values may be shown once.

Take DPP4_(270–295) peptide: the Kd was 1200 nM and 1530 nM; the koff was determined as 0.0014 s⁻¹; the kon worked out at 1160 M⁻¹ s⁻¹.

Values taken from paper PMC11279616 (Pharmaceuticals, 2024).
